These results are taken from EP1789452B1, “RELAXIN-CHIMERIC POLYPEPTIDES AND THEIR PREPARATION AND USE” (Janssen Pharmaceutica NV, priority 2004, dated 2006).

As a reminder, the IC50 is the midpoint of a concentration-inhibition curve. Lower therefore signals inhibition by little substance.

One assay addresses rat GPCR135 (rat) (UniProt Q5Y987). The assay can be described thus: competition with 100 pM [125I] human R3, COS-7 membranes with rat GPCR135.
Another assay addresses rat LGR7 (rat) (UniProt Q6R6I6). The assay can be described thus: competition with 100 pM [125I] human relaxin-2, COS-7 membranes with rat LGR7.
For a further assay, the target named is human LGR7 (human) (UniProt Q9HBX9). The assay is described as follows: cell-based or functional assay.
Sequence of human LGR7 (human) (Q9HBX9 whole entry): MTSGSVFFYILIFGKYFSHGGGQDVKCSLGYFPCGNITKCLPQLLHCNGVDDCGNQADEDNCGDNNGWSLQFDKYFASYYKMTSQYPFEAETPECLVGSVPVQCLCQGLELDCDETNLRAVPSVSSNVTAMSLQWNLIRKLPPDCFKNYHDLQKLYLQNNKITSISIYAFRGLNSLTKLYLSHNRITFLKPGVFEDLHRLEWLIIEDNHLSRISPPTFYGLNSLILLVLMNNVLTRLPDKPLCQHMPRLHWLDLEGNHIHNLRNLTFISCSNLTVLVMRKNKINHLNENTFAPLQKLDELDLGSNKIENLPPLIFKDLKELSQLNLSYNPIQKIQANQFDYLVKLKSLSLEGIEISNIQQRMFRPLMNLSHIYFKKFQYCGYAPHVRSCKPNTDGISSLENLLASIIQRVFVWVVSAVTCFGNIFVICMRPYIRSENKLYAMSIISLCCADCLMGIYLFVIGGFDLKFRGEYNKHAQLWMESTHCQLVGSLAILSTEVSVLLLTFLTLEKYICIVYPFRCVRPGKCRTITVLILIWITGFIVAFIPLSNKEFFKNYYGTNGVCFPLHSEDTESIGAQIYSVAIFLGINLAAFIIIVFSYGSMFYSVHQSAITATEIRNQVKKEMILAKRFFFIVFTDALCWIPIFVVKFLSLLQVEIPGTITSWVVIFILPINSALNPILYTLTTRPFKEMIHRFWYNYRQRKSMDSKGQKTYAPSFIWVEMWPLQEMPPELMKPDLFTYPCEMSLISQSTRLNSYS
In the next assay the target is human LGR8 (human) (UniProt Q8WXD0). The assay is described as follows: cell-based or functional assay.
Sequence of human LGR8 (human) (Q8WXD0 whole entry): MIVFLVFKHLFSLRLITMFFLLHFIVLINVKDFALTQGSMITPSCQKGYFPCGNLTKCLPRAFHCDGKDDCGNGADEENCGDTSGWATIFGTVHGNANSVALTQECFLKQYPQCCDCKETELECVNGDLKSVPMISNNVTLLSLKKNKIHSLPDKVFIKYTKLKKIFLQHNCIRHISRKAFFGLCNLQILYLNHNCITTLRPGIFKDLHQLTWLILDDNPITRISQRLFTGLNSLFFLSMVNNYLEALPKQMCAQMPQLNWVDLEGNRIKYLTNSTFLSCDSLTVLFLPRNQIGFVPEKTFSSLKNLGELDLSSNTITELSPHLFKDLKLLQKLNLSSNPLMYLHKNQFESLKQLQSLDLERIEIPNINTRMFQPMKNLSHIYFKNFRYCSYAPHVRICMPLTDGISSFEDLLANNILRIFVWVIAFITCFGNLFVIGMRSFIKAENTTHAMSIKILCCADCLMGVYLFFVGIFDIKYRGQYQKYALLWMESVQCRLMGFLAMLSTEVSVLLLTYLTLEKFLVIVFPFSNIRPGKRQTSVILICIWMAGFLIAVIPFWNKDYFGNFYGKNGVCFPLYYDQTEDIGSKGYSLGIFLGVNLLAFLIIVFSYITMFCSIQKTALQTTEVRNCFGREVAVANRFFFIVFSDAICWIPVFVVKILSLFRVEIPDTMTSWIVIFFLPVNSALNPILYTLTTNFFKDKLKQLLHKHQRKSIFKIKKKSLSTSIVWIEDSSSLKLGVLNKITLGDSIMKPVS

Sequence of rat GPCR135 (rat) (Q5Y987 entry or part of it): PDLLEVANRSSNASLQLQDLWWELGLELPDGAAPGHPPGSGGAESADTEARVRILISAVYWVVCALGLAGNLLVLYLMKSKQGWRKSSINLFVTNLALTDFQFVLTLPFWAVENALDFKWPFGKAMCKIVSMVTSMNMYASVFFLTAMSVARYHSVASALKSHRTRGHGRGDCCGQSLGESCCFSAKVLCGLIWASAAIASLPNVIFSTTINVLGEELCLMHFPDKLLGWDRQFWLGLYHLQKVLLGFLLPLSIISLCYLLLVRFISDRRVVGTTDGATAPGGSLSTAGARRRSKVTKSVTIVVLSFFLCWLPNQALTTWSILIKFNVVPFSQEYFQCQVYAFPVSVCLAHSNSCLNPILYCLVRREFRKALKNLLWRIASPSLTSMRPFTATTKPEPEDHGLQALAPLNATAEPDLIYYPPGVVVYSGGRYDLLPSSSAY
Sequence of rat LGR7 (rat) (Q6R6I6 whole entry): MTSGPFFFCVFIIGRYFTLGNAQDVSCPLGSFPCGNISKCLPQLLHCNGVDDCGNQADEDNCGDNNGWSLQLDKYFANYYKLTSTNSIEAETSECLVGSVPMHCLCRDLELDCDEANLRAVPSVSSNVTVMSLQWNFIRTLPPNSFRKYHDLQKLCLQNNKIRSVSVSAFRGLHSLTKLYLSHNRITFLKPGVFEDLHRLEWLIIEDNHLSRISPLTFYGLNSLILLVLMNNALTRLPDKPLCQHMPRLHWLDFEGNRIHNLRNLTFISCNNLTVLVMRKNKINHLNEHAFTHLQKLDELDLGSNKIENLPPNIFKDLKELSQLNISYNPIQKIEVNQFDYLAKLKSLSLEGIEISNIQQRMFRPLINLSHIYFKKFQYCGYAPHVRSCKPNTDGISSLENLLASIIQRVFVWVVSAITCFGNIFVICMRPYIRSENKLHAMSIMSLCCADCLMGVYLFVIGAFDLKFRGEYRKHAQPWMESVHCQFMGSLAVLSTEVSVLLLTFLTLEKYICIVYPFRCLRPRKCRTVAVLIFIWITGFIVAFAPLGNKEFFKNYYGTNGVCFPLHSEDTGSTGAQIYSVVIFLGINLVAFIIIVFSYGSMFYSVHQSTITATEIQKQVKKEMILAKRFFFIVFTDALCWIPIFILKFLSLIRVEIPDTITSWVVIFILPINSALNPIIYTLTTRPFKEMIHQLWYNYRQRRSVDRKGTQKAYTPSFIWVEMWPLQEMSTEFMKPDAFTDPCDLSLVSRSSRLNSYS

As to “human relaxin (R1) (from UniProt P04808 26-53; P04808 162-185) (ligand)”, the IC50 with rat GPCR135 (rat) was above 1000 nM; with rat LGR7 (rat) it was 0.2 nM.
In the assay with human LGR7 (human), “porcine relaxin (from UniProt P01348 25-56; P01348 161-182) (ligand)” registered a stimulation of β-galactosidase activity in SK-N-MC/β-gal cells, EC50 of 0.25 nM. In addition, the induction of β-galactosidase activity in SK-N-MC/β-gal cells, EC50 in the assay with human LGR8 (human) turned out to be 1.5 nM.
